Data published in patent publication US20240409645A1 (DUALYX, published 2024).

T1: human IL-2Rγ (common cytokine receptor γ-chain) (human, UniProt P31785 23-262, limits assumed)
T1 construct: Recombinant protein coated on the plate or immobilised on a CM5 chip; also called hu IL-2R; CD132
T1 sequence: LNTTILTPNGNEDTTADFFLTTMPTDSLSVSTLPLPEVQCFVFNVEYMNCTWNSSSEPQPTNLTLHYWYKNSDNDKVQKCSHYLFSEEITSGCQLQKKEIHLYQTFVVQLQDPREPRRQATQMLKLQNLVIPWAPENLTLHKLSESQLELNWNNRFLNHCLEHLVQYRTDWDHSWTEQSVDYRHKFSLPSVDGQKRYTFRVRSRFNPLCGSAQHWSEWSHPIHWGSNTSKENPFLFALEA


Key:
[1] = target: T1, human IL-2Rγ (common cytokine receptor …); assay: PE binding ELISA, periplasmic extract on coated protein
Experimental: In a binding ELISA, human or mouse IL-2Rα, IL-2Rβ and IL-2Rγ proteins were coated directly on maxisorp microtiter plates overnight at 4° C. Free binding sites were blocked using 4% Marvel in PBS for 1 hour. Next, 1:5 dilution of P.E. in 1% Marvel/PBS were added to wells and incubated for 1 hour. […] Binding specificity was determined based on O.D. at 450 nm values compared to negative controls.

[2] = target: T1, human IL-2Rγ (common cytokine receptor …); assay: SPR off-rate ranking, periplasmic extract on immobilised protein
Experimental: SPR was performed to determine dissociation rates using Biacore 3000 instrument (GE Healthcare). Briefly, human and mouse IL-2R proteins were immobilized on carboxylmethyl dextran sensor chip (CM5) at approximately 2500 RUs using amine coupling in acetate buffer (GE Healthcare). The VHH-containing P.E. were loaded with a flow rate of 30 uL/min and the off-rates were measured over a 120s period.

Binder | OD (PE binding ELISA) [1] [OD450 nm] | koff [2] [s⁻¹]
36-MP07F02 (VHH, VHH in periplasmic extract; also called FJ1427_P035MP07F02; clone nr; 590) VHH: QVQLVESGGGLVQAGGSLRLSCAASGRTLSRYAMGWFRQAPGSEREFVAASSWGGDTFYADSVEGRFTFSRDNAKNAVYLQMNSLQPEDTAAYYCAAAPTSFPTTAYSSSNSYAYWGQGTQVTVSS | 0.896 | 0.00331
FJ1427_P035MP04B01 (VHH, VHH in periplasmic extract; also called clone nr; 290) VHH: EVQLVESGGGLVQAGASLRLSCAASGRTLSRYAMGWFRQAPGKEREFVAASSWGGDTYYADSVEGRFTFSRDNAKNAVYLQMNSLQPEDTAVYYCAGAPTSFATTAYSSSNSYAYWGQGTQVTVSS | 0.873 | 0.00327
29-MP04H02 (VHH, VHH in periplasmic extract; also called FJ1427_P035MP04H02; clone nr) VHH: QVQLVESGGGLVQAGGSLRLACVASGLTFDNYYMGWFRQAPGKEREFVAGIIWNGDHTAYADSIKGRFTISRDNAKNTAYLRMNSLKPEDTAVYYCAATFWIERATTPDIGQYAYWGQGTQVTVSS | 0.157 | 0.00625
FJ1427_P035MP04G07 (VHH, VHH in periplasmic extract; also called clone nr) VHH: QVQLVESGGGWVQVGESLRLSCAPSGRTFVSGIMGWFRQAPGKEREFVARIILNNNSTRYTDSVKGRFTISRDSAKNTMYLQMNTLRPEDTAVYYCAARDRYGSGNSLSPSAYDYWGQGTQVTVSS | 0.863 | 0.0091
FJ1427_P035MP04B06 (VHH, VHH in periplasmic extract; also called clone nr; 330) VHH: QLQLVESGGGWVQVGESLRLSCVPSGRTFVSGIMGWFRQAPGKEREFVARIILNNNSTRYTDSVKGRFTISRDSAKNTMYLQMNTLRPEDTAVYYCAARDRYGSGNSLSPSAYDYWGQGTQVTVSS | 1.45 | 0.0208
30-MP04C03 (VHH, VHH in periplasmic extract; also called FJ1427_P035MP04C03; clone nr) VHH: EVQLVESGGGWVQDGGSLRLSCALSGRTFVRGIMGWFRQAPGKEREFVARIIWHINSTRYADSVKGRFTISRDSAKNTMYLQMDSLRPEDTAVYYCAARDRYGSGNSLSPSAYDYWGQGTQVTVSS | 1.49 | 0.00844
FJ1427_P035MP04A10 (VHH, VHH in periplasmic extract; also called clone nr) VHH: EVQLVESGGGWVQVGESLRLSCAPSGRTFVSGIMGWFRQAPGKEREFVARIILNNNSTRYTDSVKGRFTISRDSAKNTMYLQMNTLRPEDTAVYYCAARDRYGSGNSLSPSAYDYWGQGTQVTVSS | 1.85 | 0.0204
FJ1427_P035MP04A07 (VHH, VHH in periplasmic extract; also called clone nr) VHH: QLQLVESGGGWVQVGESLRLSCAPSGRTFVSGIMGWFRQAPGKEREFVARIILNNNSTRYIDSVKGRFTISRDSAKNTMYLQMDSLRPEDTAVYYCAARDRYGSGNSLSPSAYDYWGQGTQVTVSS | 1.9 | 0.0196
FJ1427_P035MP04B07 (VHH, VHH in periplasmic extract; also called clone nr) VHH: EVQLVESGGGWVQVGESLRLSCAPSGRTFVSGIMGWFRQTPGKEREFVARIILNNNSTRYTDSVKGRFTISRDSAKNTLYLQMNTLRPEDTAVYYCAARDRYGSGNSLSPSAYDYWGQGTQVTVSS | 1.94 | 0.0187
FJ1427_P035MP04A03 (VHH, VHH in periplasmic extract; also called clone nr) VHH: EVQLVESGGGWVQVGESLRLSCAPSGRTFVSGIMGWFRQTPGKEREFVARIILNNNSTRYTDSVKGRFTISRDSAKNTMYLQMNTLRPEDTAVYYCAARDRYGSGNSLSPSAYDYWGQGTQVTVSS | 1.87 | 0.00712
FJ1427_P035MP04B02 (VHH, VHH in periplasmic extract; also called clone nr) VHH: QVQLVESGGGWVQVGESLRLSCAPSGRTFVSGIMGWFRQTPGKEREFVARIILNNNSTRYTDSVKGRFTISRDSAKNTMYLQMNTLRPEDTAVYYCAARDRYGSGNSLSPSAYDYWGQGTQVTVSS | 1.97 | 0.0285
27-MP04G01 (VHH, VHH in periplasmic extract; also called FJ1427_P035MP04G01; clone nr) VHH: QVQLVESGGGLVQAGGSLTLSCAAPGRTFGTDVVGWFRQAPGKEREFVASISRSGDGIYYDDSVKGRFTISRNNAWNTVNLQMNSLKVEDTAVYYCAAGDGWSTYDYWGQGTQVTVSS | 0.362 | 0.00131
35-MP07G01 (VHH, VHH in periplasmic extract; also called FJ1427_P035MP07G01; clone nr) VHH: QVQLQESGGGLVQGGGSLRLSCAASGGIFSSYAMGWFRQAPGKEREFVAAISRSGRSTNYADSVKGRFTISRDNAKSTVYLQMNSLKPEETAVYYCAAGRYYNSAYDPSPGDFGSWGHGTQVTVSS | 0.134 | –

Next, values leading:

OD (PE binding ELISA) [1] [OD450 nm] | koff [2] [s⁻¹] | Binder
1.68 | 0.00732 | FJ1427_P035MP04C12 (VHH, VHH in periplasmic extract; also called clone nr) VHH: EVQLVESGGGWVQVGESLRLSCAPSGRTFVSGIMGWFRQAPGKEREFVARIILNNNSTRYIDSVKGRFTISRDSAKNTMYLQMDSLRPEDTAVYYCAARDRYGSGNSLSPSAYDYWGQGTQVTVSS
1.05 | 0.0072 | FJ1427_P035MP04D12 (VHH, VHH in periplasmic extract; also called clone nr; 380) VHH: QVQLVESGGGWVQVGKSLRLSCAPSGRTFVSGIMGWFRQAPGKEREFVARIILNNNSTRYIDSVKGRFTISRDSAKNTMYLQMDSLRPEDTAVYYCAARDRYGSGNSLSPSAYDYWGQGTQVTVSS
1.81 | 0.00775 | FJ1427_P035MP04C05 (VHH, VHH in periplasmic extract; also called clone nr) VHH: QVQLVESGGGWVQVGESLRLSCAPSGRTFVSGIMGWFRQAPGKEREFVARIILNNNSTRYTDSVKGRFTISRDSAKDTMYLQMNTLRPEDTAVYYCAARDRYGSGNSLSPSAYDYWGQGTQVTVSS
1.98 | 0.00652 | FJ1427_P035MP04E02 (VHH, VHH in periplasmic extract; also called clone nr; 301) VHH: QVQLVESGGGWVQVGESLRLSCAPSGRTFVSGIMGWFRQTPGKEREFVARIILNNNSTRYTDSVKGRFTISRDSAKNTMYLQMNTLRPEDTAVYYCAARDRYGSGNSLSPSAYDYWGQGTQVTVSS
0.75 | 0.0103 | FJ1427_P035MP04B11 (VHH, VHH in periplasmic extract; also called clone nr; 370) VHH: EVQLVESGGGWVQVGESLRLSCAPSGRTFVSGIMGWFRQAPGKEREFVARIILNNNSTRYIDSVKGRFTISRDSAKNTMYLQMDSLRPEDTAVYYCAARDRYGSGNSLSPSAYDYWGQGTQVTVSS
1.93 | 0.0207 | FJ1427_P035MP04D09 (VHH, VHH in periplasmic extract; also called clone nr) VHH: QVQLVESGGGWVQVGESLRLSCAPSGRTFVRGIMGWFRQAPGKEREFVARIILNSNSTRYIDSVKGRFTISRDSAKNTMYLQMNSLRPEDTAVYYCAARDRYGSGNSLSPSAYDYWGQGTQVTVSS
1.77 | 0.00795 | FJ1427_P035MP04F09 (VHH, VHH in periplasmic extract; also called clone nr) VHH: QVQLVESGGGWVQVGESLRLSCAPSGRTFVRGIMGWFRQAPGKEREFVARIILNNNSTRYTDSVKGRFTISRDSAKNTMWLQMDSLRPEDTAVYYCAARDRYGSGNSLSPSAYDYWGQGTQVTVSS
1.33 | 0.0205 | FJ1427_P035MP04C10 (VHH, VHH in periplasmic extract; also called clone nr) VHH: QVQLQESGGGWVQVGESLRLSCVPSGRTFVSGIMGWFRQAPGKEREFVARIILNNNSTRYTDSVKGRFTISRDSAKNTMYLQMNTLRPEDTAVYYCAARDRYGSGNSLSPSAYDYWGQGTQVTVSS
1.33 | 0.00688 | FJ1427_P035MP04E12 (VHH, VHH in periplasmic extract; also called clone nr) VHH: QLQLVESGGGWVQVGESLRLSCAPSGRTFASGIMGWFRQAPGKEREFVARIILNNNSTRYTDSVKGRFTISRDSAKNTMYLQMNTLRPEDTAVYYCAARDRYGSGNSLSPSAYDYWGQGTQVTVSS
1.47 | 0.00749 | FJ1427_P035MP04B10 (VHH, VHH in periplasmic extract; also called clone nr) VHH: EVQLVESGGGWVQVGESLRLSCAPSGRTFVSGIMGWFRQAPGKEREFVARIILNNNSTRYIDSVKGRFTISRDSAKNTMYLQMDSLRPEDTAVYYCAARDRYGSGNSLSPSAYDYWGQGTQVTVSL
1.73 | 0.00796 | FJ1427_P035MP04E04 (VHH, VHH in periplasmic extract; also called clone nr) VHH: EVQLVESGGGWVQVGESLRLSCVPSGRTFVSGIMGWFRQAPGKEREFVARIILNSNSTRYTDSVKGRFTISRDSAKNTMYLQMNSLRPEDTAVYYCAARDRYGSGNSLSPSAYDYWGQGTQVTVSS
0.264 | 0.00124 | FJ1427_P035MP04C01 (VHH, VHH in periplasmic extract; also called clone nr) VHH: QVQLVESGGGLVQAGGSLTLSCAASGRTFSTDVVGWFRQAPGKEREFVASISRSGDGIYYDDSVKGRFTISRNNAWNTVNLQMNNLKVEDTAVYYCAAGDGWSTYDYWGQGTQVTVSS
